B1: ZNF649 (parent)
chain: YQAGKPDALTKLEQGEPLWTLEDE
B2: KIAA0774 (parent)
chain: FEDEVKRLGWQQQAELQELEERLQ

Variants of: B1
Assay: protein stability index of a GFP-peptide fusion (GPS, HEK-293T) (PSI 1-6); higher = more stable
Conditions: c terminus: a fixed tail appended
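Further: lentivirally expressed fusions sorted by FACS into six bins by GFP to DsRed ratio, PSI derived from sequencing read proportions per bin multiplied by bin number.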

Protein stability index, by site and new letter:
L18: E 5.49; R 4.96; F 3.54; K 5.03; M 3.84; T 5.06; S 5.32; W 3.59; H 5.06; D 5.11; Y 3.95; P 5.35; C 4.91; I 3.53; G 4.83; A 4.5; Q 5.19
T20: F 4.22; S 3.73; G 4.24; Q 4.82; P 4.58; D 5.06; I 3.96; Y 4.7; K 4.13; N 4.42; M 5.05; R 4.34; C 2.62; E 5.14; W 2.67; L 3.15; H 4.57; A 3.73; V 4.41
Q14: T 4.71; S 4.13; C 4.66; R 3.8; F 3.89; M 4.17; W 4.44; V 4.71; H 4.14; Y 3.53; N 4.07; D 4.67; L 4.07; P 4.63; G 4.92; A 4.11; I 4.44; K 4.28
P17: R 3.94; C 3.46; M 4.1; Q 4.47; K 3.97; F 3.68; W 3.36; E 4.21; L 3.95; A 4.86; Y 3.23; N 4.41; H 4.1; G 3.47; I 3.22
L12: S 4.52; K 4.17; W 3.75; V 4.32; M 4.54; Q 4.56; T 4.22; N 4.78; P 4.38; Y 4.68; R 4.4
E24: A 3.74; T 4.42; W 2.38; N 4.27; F 3.05; P 4.32; R 4.48; M 3.88; V 3.42; S 4.27; D 4.71; G 3.87; I 3.42; C 3.49; Y 3.29; L 3.53; K 4.41; H 4.04; Q 4.02
E22: N 3.95; V 2.88; D 4.6; P 4.39; S 2.75; L 3.6; T 4.28; W 2.35; M 2.92; Q 3.5; C 3.45; Y 2.62; K 3.46; H 3.3; I 3.75; G 3.88; A 4.8; F 2.05
G15: F 3.74; K 4.4; C 3.9; I 4.15; T 4.15; P 3.89; N 4.11; D 4.6; S 4.21; W 3.39; H 4.31; L 4.25; Y 3.52; R 2.82; E 4.88; M 3.97; V 4.62; Q 4.31; A 3.84
E13: R 3.26; Y 3.12; N 4.16; M 3.45; Q 2.87; G 3.31; V 4.21; P 4.18; S 4; F 2.6; W 1.98; H 4.25; K 3.34; I 3.15; C 3.2; L 3.14; T 3.86; A 4.2; D 4.18
E16: I 2.1; S 4.38; Y 2.62; D 4.94; A 3.93; W 2.49; Q 3.76; T 3.97; H 3.32; N 3.73; L 3.66; K 4.49; M 1.92; G 4.06; F 2; V 2.59; P 3.93
W19: Y 5.24; V 5.72; D 5.31; S 5.57; C 4.86; R 4.69; F 4.86; H 5.72; E 5.34; K 4.98; N 5.2; L 4.92; I 5.21; A 5.52; P 5.62; T 5.61; M 4.87
D23: S 4.11; M 2.99; N 3.25; E 4.57; F 3.38; Y 2.14; H 4.13; Q 3.86; K 3.51; R 4.16; C 2.98; W 2.13; T 3.32; P 3.78; G 3.61; I 1.84; V 3.81; L 2.97
L21: Q 4.23; C 2.78; I 4.06; Y 4.95; S 4.52; T 4.37; N 4.39; W 3.52; V 2.31; K 4.79; E 5.3; A 4.47; F 4.42; R 4.55; M 3.88; H 5.03; G 4.4; D 4.89

Variants of: B2
Assay: as above
Conditions: c terminus: a fixed tail appended

Protein stability index of substitutions, site by site:
E2: R 4.41; V 2.21; I 3.12; P 3.16; L 3.05; Y 3.56; T 2.77; H 2.16; M 2.77; C 2.71; F 3.25; A 2.71; D 3.79; K 2.27; G 3.14; Q 2.93; W 3.33; S 2.32; N 2.5
F1: A 4.11; T 2.85; D 4.72; K 2.96; C 3.11; I 3.86; G 3.56; P 4.12; W 3.93; H 4.02; L 4.06; M 3.68; Y 3.38; Q 4.05; V 3.66; S 2.67; R 3.41; N 4.32; E 4.66
K6: Q 4.07; G 4.5; N 4.16; P 4.48; A 4.54; H 4.14; L 4.12; D 3.75; E 4.67; C 3.87; M 4.17; I 3.39; F 4.38; R 4.03
E4: W 2.81; H 3.59; S 2.83; T 3.2; A 2.75; M 3.12; L 2.47; Y 3.64; F 3.38; V 3.33; R 3.32; K 2.97; Q 3.26; C 2.93; D 4.14; I 3.19; G 3.21; N 3.49; P 3.56
V5: I 3.87; K 2.54; D 4.37; H 4.15; F 2.77; Y 4.24; Q 4.13; S 3.47; N 4.08; C 3.6; T 3.5; W 3.5; A 3.86; E 4.44; G 3.99; R 2.75; P 4.01; M 4.19; L 3.4
D3: C 2.3; S 2.58; V 2.76; Q 3.29; F 2.72; E 3.86; I 1.66; K 2.03; R 2.35; T 2.69; W 3.19; N 2.75; A 3.33; Y 2.85; M 2.59; P 3.42; G 3.23; H 2.99; L 2.95
